Data from article PMC13061415.

B1: Twa1 CTLH-CRA domain (58-190), wild type [mouse] / muskelin CTLH-CRA domain (205–735 Δ248–625) [rat] (parent)
chain 1: EHPMLTDMHDKLVLKGDFDACEELIEKAVNDGLFNQYISQQEYPSKDYLLRHCKYLIRKHRFEEKAQMDPLSALKYLQNDLYITVDHSDPEETKEFQLLASALFKSGSDFTALGFSDVDHTYAQRTQLFDTLVNFFPDSMTPPKGNLVDLITL
chain 2: SVDLETLDERIKIREMILKGQIQEAIALINSLHPELLDTNRYLYFHLQQQHLIELIRQRETEAALEFAQTQLAEQGEESRECLTEMERTLALLAFDSPEESPFGDLLHMMQRQKVWSEVNQAVLDYENRESTP

Variants of: B1
Experiment: ITC
Details: with muskelin CTLH-CRA domain (205–735 Δ248–625) [rat]; 160 µM muskelin + 16 µM Twa1 mutants

Kd [nM] | screen value | Variant
340 | 0.88 | chain 2 A68G Q69R A73Q L83K E87K L90F F95Y F103V

Same assay, conditions: with muskelin CTLH-CRA domain (205–735 Δ248–625) [rat]; 160 µM muskelin + 16 µM Twa1 mutants; read off a plot

screen value [kcal/mol] | Variant
-9.2 | chain 2 A68G Q69R A73Q L83K E87K L90F F95Y F103V
